The values that follow are results of earlier work, collected in publication PMC8463877.

Data set [1] deals with apoC-II fibrils (Homo sapiens) (UniProt P02655).
For data set [2], the target named is Aβ42 fibrils Aβ1-42 (Homo sapiens) (UniProt P05067).
Chain of Aβ42 fibrils Aβ1-42 (Homo sapiens) (P05067 1-42): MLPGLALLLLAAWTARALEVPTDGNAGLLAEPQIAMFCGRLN

Chain of αB-crystallin (P02511 whole entry): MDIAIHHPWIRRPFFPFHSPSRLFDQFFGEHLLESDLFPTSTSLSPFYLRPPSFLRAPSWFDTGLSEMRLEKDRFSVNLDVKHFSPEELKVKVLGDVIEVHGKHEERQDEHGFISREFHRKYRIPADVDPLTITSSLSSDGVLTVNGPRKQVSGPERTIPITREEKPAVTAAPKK
Chain of apoC-II fibrils (Homo sapiens) (P02655 23-101): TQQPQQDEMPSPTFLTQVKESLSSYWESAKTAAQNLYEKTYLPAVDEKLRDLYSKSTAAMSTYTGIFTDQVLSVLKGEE

As a reminder, the Kd is the equilibrium constant for the complex coming apart. Turning to αB-crystallin (from UniProt P02511), the Kd in data set [1] was 5.4 µM; in data set [2], 2.1 µM.
